The target in test [1] is ETR1 (Arabidopsis thaliana, UniProt P49333). Particulars: read-out: calculated dissociation constant (Kd); ethylene binding to ETR1; cited from earlier work.
The test system of test [2] is plants. Particulars: in vivo; cited from earlier work.
Test [3] has as its system Arabidopsis seedlings, etr1 etr2 ein4 ers1 ers2 background. In words: Ethylene and 1-MCP response of ETR1^D25N lines lacking all five native ethylene receptors. Particulars: 1 μM ethylene. The format is in vivo.
For test [4], the system named is Arabidopsis seedlings, etr1 etr2 ein4 background. In words: Short-term kinetic analysis of hypocotyl growth response to ethylene. The format is in vivo. Particulars: for short-term hypocotyl growth response to ethylene: 10 μL/L ethylene for 2 hr; for growth recovery upon ethylene removal: after 2 hr of 10 μL/L ethylene, 5-hr recovery in air. The protocol:
Based on the differences Applicant uncovered for the long-term ethylene growth responses for the Asp25 mutants, Applicant also analyzed their short-term hypocotyl growth and molecular responses to ethylene. To this end, Applicant performed a short-term kinetic analysis, analyzing the initial hypocotyl growth inhibition in response to 10 μL/L ethylene and the growth recovery following the removal of ethylene after two hours of treatment (FIG. 6A).
(§1) All Arabidopsis lines were of the Columbia (Col-0) accession. The etr1-1 and etr1-6 etr2-3 ein4-4 mutant lines have been described. Analysis of the triple response of dark-grown Arabidopsis seedlings to ethylene was performed as described previously. Briefly, seedlings were grown at 22° C. on vertically oriented plates on half-strength Murashige and Skoog basal medium with Gamborg's vitamins (pH 5.75; Sigma), 0.8% (w/v) agar, and 5 μM aminoethoxyvinylglycine (AVG) to inhibit ethylene biosynthesis. The stratified seed was exposed to light for 8 hr and then moved to the dark in the presence or absence of ethylene, with analysis of the seedling growth being performed following 4 days total growth. For short-term kinetic analysis of dark-grown seedlings, time-lapse imaging and growth rate analysis of hypocotyls were carried out as described previously.

Test [5] has the same test system. In words: Triple-response hypocotyl growth assay of dark-grown seedlings expressing ETR1 transgenes. In kind it is in vivo. Particulars: for rescue of growth of etr1 etr2 ein4 triple mutant in air: absence of ethylene, hypocotyl and adult shoot growth; for hypocotyl growth response to ethylene: dark-grown seedlings, 0 or 1 μL L^−1 ethylene. On the procedure:
Functionality of the ETR1 Asp25 mutants was tested by transgenic expression in the etr1 etr2 ein4 Arabidopsis background.
Applicant can thus exploit the triple mutant to assess the ability of the ETR1 transgenes to rescue growth in the absence of ethylene as well as their ability to mediate a response to ethylene. Such an analysis indicates whether the encoded receptors are able to assume the ‘on’ conformation that represses the ethylene response in air, as well as the ‘off’ conformation that occurs in response to ethylene binding.
as §1

A short description of test [6]: Copper binding assay: purified ETR1 transmembrane domain titrated to BCA2-Cu(I) complex, absorbance at 562 nm. Particulars: ETR1-TMD expressed and purified from E. coli; Cu(I) stabilized by BCA. The source says: Cu(I) was stabilized by the copper chelator BCA, and then titrated with increasing ETR1 protein concentration.
Titration curves were corrected for nonspecific binding observed with chemically and thermally denatured receptor to maximize signal to background levels.

Test [7] relates to OSR1, ERF1, EXP5 and EXPb1 expression. In words: Ethylene-dependent gene expression by RT-qPCR. The format is in vivo, Arabidopsis. Particulars: 0 or 1 μL L^−1 ethylene for 2 hr. On the procedure: To examine the short-term molecular response, Applicant characterized ethylene-dependent gene expression for the ETR1 Asp25 mutants (FIG. 6B). Expression of OSR1 and ERF1 is induced, whereas the expression of EXP5 and EXPb1 is repressed, in response to ethylene.
RNA isolation and RT-qPCR was performed with three biological replicates and two technical replicates of each.
In general terms: In qPCR the cycle at which signal appears reflects the starting amount.

A short description of test [8]: Saturable [14C]ethylene binding of Arabidopsis seedlings (in planta). Particulars: two-week-old green seedlings, 0.31 μL L^−1 [14C]ethylene, 5 μM AVG. The protocol:
[^14C]ethylene binding was examined in two-week-old green seedlings grown on media containing 5 μM aminoethoxyvinylglycine (AVG) to inhibit ethylene biosynthesis.
For ethylene binding assays with Arabidopsis seedlings, two-week-old green seedlings were used that had been grown on media containing 5 μl M AVG to inhibit ethylene biosynthesis, with ˜1 g seedlings per sample. The fresh weight of seedlings was determined, and each sample packaged into bags formed from a layer of cheese cloth and stapled at the top. Humidity was maintained in the ethylene binding chambers by use of moistened paper towels. Saturable ethylene binding was determined by analyzing binding to 0.31 μL L^−1 [^14C]ethylene, in the presence or absence of excess [^12C]ethylene.

Test [9] can be described thus: Saturable [14C]ethylene binding to yeast transgenically expressing ETR1. Also noted: species or system Saccharomyces cerevisiae. Particulars: for saturable [14C]ethylene binding: 0.21 μL L^−1 [14C]ethylene, with or without excess [12C]ethylene. The text has this: Saturable ethylene binding of the ETR1 Asp25 mutants was examined by heterologous expression in yeast, with binding to [^14C]ethylene determined in the presence or absence of excess [^12C]ethylene (FIG. 2C). […] This included the ETR1^D25A mutant, consistent with previous observations, as well as for the ETR1^D25N and ETR1^D25Q mutants (FIG. 2C). Results from the ethylene binding assay are therefore consistent with the negative charge at D25 playing a significant role in mediating high-affinity ethylene binding.
[^14C]ethylene (specific activity=116 mCi/mmol) was obtained from ViTrax Radiochemicals (Placentia, CA) and trapped as the mercuric perchlorate complex as described. For ethylene binding assays in yeast, ETR1 was expressed in the yeast Saccharomyces cerevisiae (strain FY834) using the vector pYcDE-2 and a constitutive ADC1 promoter. The yeast growth media was supplemented with 40 μg L^−1 copper sulfate. Saturable ethylene binding to yeast was determined by analyzing binding of 0.3 g yeast per sample to 0.21 μL L^−1 [^14C]ethylene, in the presence or absence of excess [^12C]ethylene.

The test system of test [10] is dark-grown Arabidopsis seedlings. In words: Silver sensitivity assay: effect of silver on ethylene response of dark-grown seedlings. The format is in vivo. Particulars: transgene in etr1 etr2 ein4 background, 10 μL/L ethylene. The text has this:
As an initial test for the feasibility of the first hypothesis, Applicant asked if ETR1^D25N could still bind a metal cofactor, and therefore potentially ethylene, in planta. For this purpose, Applicant examined the effects of silver (Ag) on ethylene sensitivity. Silver is thought to substitute for the copper cofactor and, although receptors containing silver can still bind ethylene, they no longer transmit the signal, resulting in ethylene insensitivity.

For test [11] the following is noted: previously reported, cited from earlier work.
Test [12] concerns Arabidopsis seedlings, etr1 etr2 ein4 background. Particulars: previously reported; cited from earlier work.
The conditions of test [13]: previously reported; cited from earlier work.

Numbering of substitutions follows the chain as printed. Numbers in names are those of the source. Read-outs that look alike come from different tables or passages of the source.

In general, Kd refers to the constant that tells how readily two partners part at equilibrium.

ETR1, sequence (P49333 whole entry): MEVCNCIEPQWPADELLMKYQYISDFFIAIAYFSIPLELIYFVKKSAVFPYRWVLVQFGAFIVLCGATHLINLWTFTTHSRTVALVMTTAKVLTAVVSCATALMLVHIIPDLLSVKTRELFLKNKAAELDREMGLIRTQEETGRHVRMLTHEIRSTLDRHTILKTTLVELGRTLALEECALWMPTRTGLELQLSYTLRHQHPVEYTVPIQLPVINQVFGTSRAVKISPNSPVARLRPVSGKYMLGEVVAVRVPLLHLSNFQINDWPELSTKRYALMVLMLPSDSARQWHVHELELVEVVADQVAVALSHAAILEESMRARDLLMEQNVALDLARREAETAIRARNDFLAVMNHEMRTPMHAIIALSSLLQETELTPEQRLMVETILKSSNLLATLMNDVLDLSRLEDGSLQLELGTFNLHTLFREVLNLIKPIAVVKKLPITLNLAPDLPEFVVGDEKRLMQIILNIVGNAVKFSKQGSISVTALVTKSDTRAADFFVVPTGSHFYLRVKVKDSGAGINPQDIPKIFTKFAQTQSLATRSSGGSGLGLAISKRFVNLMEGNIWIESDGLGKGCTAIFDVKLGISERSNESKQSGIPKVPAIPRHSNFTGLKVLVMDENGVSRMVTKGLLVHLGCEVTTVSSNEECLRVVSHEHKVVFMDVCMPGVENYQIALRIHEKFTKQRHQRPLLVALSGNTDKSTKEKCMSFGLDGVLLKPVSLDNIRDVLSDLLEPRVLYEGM

As to `C=C` [Ethylene, ethylene], the Kd in test [1] is 2.4 nM. In test [2], the “ethylene concentration plants respond to (as low as)” value is on record as 0.2 nL L^−1.
`CC1=CC1` [1-methylcyclopropene, reference compound]: the “effect of 1-MCP on ethylene response” value in test [3] (ETR1^D25N (etr1 etr2 ein4 ers1 ers2) lines, 1 μM 1-MCP) is on record as “blocked”.
With “ETR1^wt: wild-type ethylene receptor ETR1 of Arabidopsis”, in test [4], the “short-term hypocotyl growth response to ethylene” value is reported as “rapid growth response to ethylene”; the “growth recovery upon ethylene removal” value is “growth recovery intermediate between that exhibited by the wild-type and the etr1 etr2 ein4 seedlings”. In addition, the “rescue of growth of etr1 etr2 ein4 triple mutant in air” value (shortened to “rescue”) in test [5] is recorded as “rescued growth”. Also, the copper binding result in [6] was “copper binding”. Moreover, the “molecular response to ethylene (ethylene-dependent gene expression)” value (from here on “molecular response to ethylene”) in test [7] was “consistent with what is observed in the wild-type control”. Also, the “ethylene binding in planta versus etr1 etr2 ein4 basal level” value in test [8] is on record as “significant increase in ethylene binding”. Besides, the “saturable [14C]ethylene binding” value in [9] is “Saturable binding”. The “ability of silver to block the ethylene response in transgene lines” value in test [10] is “restores the ability of silver to block the ethylene response”.

B1: etr1-1: well-characterized ETR1 missense mutation Cys65Tyr; ethylene-insensitive control (protein, UniProt P49333 1-738, looked up, variant C65Y)
Ethylene receptor 1: MEVCNCIEPQWPADELLMKYQYISDFFIAIAYFSIPLELIYFVKKSAVFPYRWVLVQFGAFIVLYGATHLINLWTFTTHSRTVALVMTTAKVLTAVVSCATALMLVHIIPDLLSVKTRELFLKNKAAELDREMGLIRTQEETGRHVRMLTHEIRSTLDRHTILKTTLVELGRTLALEECALWMPTRTGLELQLSYTLRHQHPVEYTVPIQLPVINQVFGTSRAVKISPNSPVARLRPVSGKYMLGEVVAVRVPLLHLSNFQINDWPELSTKRYALMVLMLPSDSARQWHVHELELVEVVADQVAVALSHAAILEESMRARDLLMEQNVALDLARREAETAIRARNDFLAVMNHEMRTPMHAIIALSSLLQETELTPEQRLMVETILKSSNLLATLMNDVLDLSRLEDGSLQLELGTFNLHTLFREVLNLIKPIAVVKKLPITLNLAPDLPEFVVGDEKRLMQIILNIVGNAVKFSKQGSISVTALVTKSDTRAADFFVVPTGSHFYLRVKVKDSGAGINPQDIPKIFTKFAQTQSLATRSSGGSGLGLAISKRFVNLMEGNIWIESDGLGKGCTAIFDVKLGISERSNESKQSGIPKVPAIPRHSNFTGLKVLVMDENGVSRMVTKGLLVHLGCEVTTVSSNEECLRVVSHEHKVVFMDVCMPGVENYQIALRIHEKFTKQRHQRPLLVALSGNTDKSTKEKCMSFGLDGVLLKPVSLDNIRDVLSDLLEPRVLYEGM
As to B1, the “ethylene binding (previous studies)” value in [11] is given as “no longer binds ethylene”. Moreover, the “ethylene sensitivity of plants (previous studies)” value in [12] was “confers dominant ethylene insensitivity”. In test [13], the “copper cofactor binding (previous studies)” value is reported as “no longer binds the copper cofactor”.

B2: ETR1^D25A: ETR1 with site-directed mutation of Asp25 to Ala (protein, UniProt P49333 1-738, looked up, variant D25A)
Ethylene receptor 1: B1 Ethylene receptor 1 with D25A, Y65C
Take B2: the “short-term hypocotyl growth response to ethylene” value in [4] is “exhibit ethylene insensitivity”. The “rescue” value in test [5] was “rescued growth”. Also, in test [5], the “hypocotyl growth response to ethylene” value is listed as “conferred ethylene insensitivity”. Also, in test [6], the copper binding entry was “no copper binding”. In addition, the “molecular response to ethylene” value in test [7] was “various levels of hyposensitivity”. For the same molecule, the “saturable [14C]ethylene binding” value in test [9] is “No saturable [^14C]ethylene binding was detected”. For the same molecule, the figures for the “ethylene binding (previous studies)” value in [11] and in [11] (listed as D25A) were “eliminate ethylene binding” and “abolishes ethylene binding”, respectively. Besides, the “ethylene sensitivity of plants (previous studies)” value in test [12] is “confers dominant ethylene-insensitivity”.

B3: ETR1^D25N: ETR1 with site-directed mutation Asp25Asn, carboxylic acid changed to carboxamide (protein, UniProt P49333 1-738, looked up, variant D25N)
Ethylene receptor 1: B1 Ethylene receptor 1 with D25N, Y65C
Regarding B3, in test [4], the “short-term hypocotyl growth response to ethylene” value was “rapid growth response to ethylene”; the “growth recovery upon ethylene removal” value was “growth recovery intermediate between that exhibited by the wild-type and the etr1 etr2 ein4 seedlings”. Further, in [5], the “rescue” value is given as “rescued growth” and the “hypocotyl growth response to ethylene” value is reported as “rescued the hypocotyl growth response to ethylene to the same degree as ETR1^wt”. In test [3] (etr1 etr2 ein4 ers1 ers2 lines #11 and #15), the “response to ethylene without other native receptors” value is “still responded to ethylene”. Besides, the copper binding entry in test [6] is listed as “minimal residual binding”. Also, the “molecular response to ethylene” value in [7] is on record as “consistent with what is observed in the wild-type control”. The “ethylene binding in planta versus etr1 etr2 ein4 basal level” value in [8] is listed as “no increase in ethylene binding”. Further, the “saturable [14C]ethylene binding” value in test [9] is “No saturable [^14C]ethylene binding was detected”. Further, the koff increase entry in test [9] (relative to ETR1^wt, suggested by inability to detect [14C]ethylene binding) is “at least 100 fold”. Moreover, the “ability of silver to block the ethylene response in transgene lines” value in [10] is on record as “restores the ability of silver to block the ethylene response”.
